Series [1] addresses T1, LIMYB (L10-[…] MYB DOMAIN-CONTAINING PROTEIN) (Arabidopsis thaliana, UniProt Q9FFJ8 1-449).
T1 sequence: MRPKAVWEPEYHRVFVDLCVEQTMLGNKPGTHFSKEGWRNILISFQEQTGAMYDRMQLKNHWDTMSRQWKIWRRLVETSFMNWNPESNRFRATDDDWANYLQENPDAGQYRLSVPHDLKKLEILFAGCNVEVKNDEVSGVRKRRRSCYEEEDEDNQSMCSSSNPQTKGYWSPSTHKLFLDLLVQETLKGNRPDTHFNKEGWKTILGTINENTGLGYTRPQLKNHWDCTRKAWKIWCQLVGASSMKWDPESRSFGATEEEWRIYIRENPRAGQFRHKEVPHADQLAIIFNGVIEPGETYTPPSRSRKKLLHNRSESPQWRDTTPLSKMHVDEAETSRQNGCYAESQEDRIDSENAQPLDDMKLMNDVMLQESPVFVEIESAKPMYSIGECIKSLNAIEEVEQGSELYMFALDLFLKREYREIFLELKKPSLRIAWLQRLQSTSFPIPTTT
Put plainly: EMSA. In general terms: A gel shift assay detects complexes by their altered migration in electrophoresis.

In series [2] the target is T1, LIMYB (L10-[…] MYB DOMAIN-CONTAINING …). Put plainly: competition.

B1: RPL18 promoter 26-bp CAAAAC fragment (dsDNA)
DNA 1: GATGGAGGAAGCAAAACATTGACCAT
DNA 2: ATGGTCAATGTTTTGCTTCCTCCATC
Turning to B1, the binding result in series [1] is reported as “binds”.

B2: RPL18 26-bp mutant competitor (CAAAAC to ATCGTG) (dsDNA)
DNA 1: GATGGAGGAAGATCGTGATTGACCAT
DNA 2: ATGGTCAATCACGATCTTCCTCCATC
In the case of B2, the binding result in series [2] is given as “no binding”.

Values taken from publication PMC12075613.
